One may read the stoichiometry N as a count of units in the complex or per binding partner.

The results in this text go back to article PMC6336717 (Frontiers in Immunology, 2018).

T1: FH_(19−20) (C-terminal part of factor H, SCR 19-20), recombinant (human, UniProt P08603 1103-1231)
T1 construct: Complement factor H, human, SCR domains 19-20; also called fragment FH_(19−20); source: recombinant
T1 sequence: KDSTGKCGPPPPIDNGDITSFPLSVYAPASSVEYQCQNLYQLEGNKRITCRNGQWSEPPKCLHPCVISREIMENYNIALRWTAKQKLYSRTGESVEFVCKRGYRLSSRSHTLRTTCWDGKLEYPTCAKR

B1: factor H-related protein 1 (FHR-1), recombinant (natural protein, human, UniProt Q03591 19-330, looked up)
chain: EATFCDFPKINHGILYDEEKYKPFSQVPTGEVFYYSCEYNFVSPSKSFWTRITCTEEGWSPTPKCLRLCFFPFVENGHSESSGQTHLEGDTVQIICNTGYRLQNNENNISCVERGWSTPPKCRSTDTSCVNPPTVQNAHILSRQMSKYPSGERVRYECRSPYEMFGDEEVMCLNGNWTEPPQCKDSTGKCGPPPPIDNGDITSFPLSVYAPASSVEYQCQNLYQLEGNKRITCRNGQWSEPPKCLHPCVISREIMENYNIALRWTAKQKLYLRTGESAEFVCKRGYRLSSRSHTLRTTCWDGKLEYPTCAKR
notes: Complement factor H-related protein 1, human; secreted from CHO cells, so probably the mature protein
B2: Sbi-III-IV(K173A) (domain or fragment)
chain: not shown
notes: As used in SPR, ELISA and SAXS; also called K173A Sbi-III-IV; Sbi-III-IV mutant K173A; source: recombinant, from mutated pQE30:sbi-III-IV plasmid (QuikChange), purified

Data set [1] deals with the molecule itself. Put plainly: SAXS; Sbi-III-IV, C3d and FHR-1 combined 1:1:1 at 45 uM, in PBS; EOM ensemble modelling with P2 symmetry.
The target of a further data set is T2, Factor H (FH) (human, UniProt P08603 19-1231).
T2 construct: Complement factor H, human, plasma purified; also called plasma purified FH; source: bought: Complement Technologies (plasma purified)
Put plainly: SPR; Biacore S200, CM5 chip, 25°C, HBST (10 mM HEPES, 150 mM NaCl, 0.005% Tween 20, pH 7.4); surfaces: 800 RU opsonized C3b, iC3b made from it, or 600 RU amine-coupled C3d; series of Sbi-III-IV WT or K173A (4,050 to 1.8 nM) flowed alone or co-injected with FH, FHR-1, FHR-2, FHR-5 or FH19-20 at 100, 12.5, 20, 25 or 20 nM. To be noted: both partners purified. Background: In SPR one partner is held on a chip, and binding of the other changes the refractive index at the surface.

Data set [2] deals with B1. The data set is described as above. To be noted: both partners purified.
Data set [3] has as its target T1, FH_(19−20) (C-terminal part of factor …). The description is as above. The following applies: both partners purified.

Regarding B1, the “stoichiometry N” value in data set [1] came to 2.
As to B2, the binding result (in the data set with Factor H (FH); in data set [2]; in data set [3]) was “binds” each time.
